Assay results from article PMC10703879.

How the values were obtained:
[1] = biological target: BCMAECD-His (monomeric, His-tagged human BCMA extracellular domain) (human) (UniProt Q02223); test: SPR; heterogeneous ligand, first site (kd1); details: VHH
[2] = biological target: BCMAECD-Fc (dimerized, Fc-tagged human BCMA extracellular domain) (human) (UniProt Q02223); test: SPR; heterogeneous ligand, first site (kd1); details: VHH
[3] = biological target: BCMAECD-Fc (dimerized, Fc-tagged human BCMA extracellular domain) (human) (UniProt Q02223); test: SPR; heterogeneous ligand, first site (KD1); details: VHH
[4] = biological target: BCMAECD-His (monomeric, His-tagged human BCMA extracellular domain) (human) (UniProt Q02223); test: SPR; heterogeneous ligand, second site (KD2); details: VHH
[5] = biological target: BCMAECD-Fc (dimerized, Fc-tagged human BCMA extracellular domain) (human) (UniProt Q02223); test: SPR; heterogeneous ligand, second site (KD2); details: VHH
[6] = biological target: BCMAECD-His (monomeric, His-tagged human BCMA extracellular domain) (human) (UniProt Q02223); test: SPR; heterogeneous ligand, second site (kd2); details: VHH
[7] = biological target: BCMAECD-Fc (dimerized, Fc-tagged human BCMA extracellular domain) (human) (UniProt Q02223); test: SPR; heterogeneous ligand, second site (kd2); details: VHH
[8] = biological target: BCMAECD-Fc (dimerized, Fc-tagged human BCMA extracellular domain) (human) (UniProt Q02223); test: SPR; Biacore 8K, 25 °C, 10 mM HEPES pH 7.4, 150 mM NaCl, 0.05% Tween 20; BCMAECD-Fc immobilised by amine coupling on CM5; nanobodies as analytes (five two-fold dilutions); Langmuir model for Nb1 and Nb2, heterogeneous ligand model for NbT
[9] = biological target: BCMAECD (synthesized extracellular domain of human B-cell maturation antigen, residues 1-54) (human) (UniProt Q02223); test: AUC; sedimentation velocity; complexes formed by mixing nanobody with excess BCMAECD (molar ratio 1:4, overnight at 4 °C); 1 mg/ml, 45,000 rpm, 20 mM Tris pH 8.0, 100 mM NaCl, 4 °C
BCMAECD (synthesized extracellular domain of human B-cell maturation antigen, residues 1-54) (human), sequence (Q02223 1-54): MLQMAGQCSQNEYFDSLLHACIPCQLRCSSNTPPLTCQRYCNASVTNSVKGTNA

[10] = biological target: BCMAECD-His (monomeric, His-tagged human BCMA extracellular domain) (human) (UniProt Q02223); test: SPR; Biacore 8K, 25 °C, 10 mM HEPES pH 7.4, 150 mM NaCl, 0.05% Tween 20; BCMAECD-His immobilised by amine coupling on CM5; nanobodies as analytes (five two-fold dilutions); Langmuir model for Nb1 and Nb2, heterogeneous ligand model for NbT

BCMAECD-Fc (dimerized, Fc-tagged human BCMA extracellular domain) (human), sequence (Q02223 1-54): as above
BCMAECD-His (monomeric, His-tagged human BCMA extracellular domain) (human), sequence (Q02223 1-54): as above

Substance | koff [1] [s⁻¹] | koff [2] [s⁻¹] | Kd [3] [nM] | Kd [4] [nM] | Kd [5] [nM] | koff [6] [s⁻¹] | koff [7] [s⁻¹] | KD of the higher-affinity site (heterogeneous ligand model) [8] [nM] | stoichiometry N (NbT per BCMAECD (printed 2 to 4)) [9] | KD of the stronger site (heterogeneous ligand model) [10] [nM]
NbT (cilta-cel nanobody tandem, Nb1 and Nb2 in tandem) | 0.000118 | 3.28e-05 | 0.00361 | 4.27 | 3.54 | 0.0191 | 0.0133 |  |  | 
NbT (cilta-cel nanobody tandem, Nb1 and Nb2 in tandem) (VHH) |  |  |  |  |  |  |  | 0.0036 | 0.5 | 0.011
